Experimental data taken from paper PMC5484772.
Bridges are numbered along the chain shown (N, C = ends). Where no end group is shown, it is not given here.

Experiments:
Experiment in all cases: SPR; competition in solution, Biacore T200: 796 nM (50 ug/ml) purified DiCo mixed with PfRon2L in serial 1:3 dilutions from 12.5 uM to 5.7 nM, incubated 4 h at room temperature; residual binding of free DiCo read on biotinylated PfRon2L immobilised on a Series S streptavidin chip; buffer control set to 100%
[1] = target: PfAMA1 diversity covering variant DiCo2
[2] = target: PfAMA1 diversity covering variant DiCo3
DiCo-Mix = target: DiCo-Mix
[3] = target: PfAMA1 diversity covering variant DiCo1

Question: For DITQQAKDIGAGPVASCFTTRMSPPQQICLNSVVNTALS (disulfide 17-29 (inferred)) [PfRon2L], which PfRon2L concentration at full equilibrium saturation of 796 nM DiCo [1] is on record?
Answer: Its PfRon2L concentration at full equilibrium saturation of 796 nM DiCo is 12.5 µM.

Question: What about the PfRon2L concentration for almost full saturation of 796 nM DiCo [1] of the same binder?
Answer: Its PfRon2L concentration for almost full saturation of 796 nM DiCo is > 1000 nM.

Question: And the PfRon2L concentration at full equilibrium saturation of 796 nM DiCo [2]?
Answer: Its PfRon2L concentration at full equilibrium saturation of 796 nM DiCo is 12.5 µM.

Question: What about the PfRon2L concentration for equilibrium saturation of 796 nM DiCo [2] of the same binder?
Answer: Its PfRon2L concentration for equilibrium saturation of 796 nM DiCo is > 10 µM.

Question: What about the PfRon2L concentration at full equilibrium saturation of 796 nM DiCo (DiCo-Mix) of the same binder?
Answer: Its PfRon2L concentration at full equilibrium saturation of 796 nM DiCo is 12.5 µM.

Question: And the PfRon2L concentration for almost full saturation of 796 nM DiCo (DiCo-Mix)?
Answer: Its PfRon2L concentration for almost full saturation of 796 nM DiCo is > 1000 nM.

Question: What about the PfRon2L concentration at full equilibrium saturation of 796 nM DiCo [3] of the same binder?
Answer: The PfRon2L concentration at full equilibrium saturation of 796 nM DiCo was 12.5 µM.

Question: What about the PfRon2L concentration for almost full saturation of 796 nM DiCo [3] of the same binder?
Answer: Its PfRon2L concentration for almost full saturation of 796 nM DiCo is > 1000 nM.
